Among the data in publication PMC7480387 are binding values, retold here.

In data set [1] the test system is T1, GST-SfbR2 (Streptomyces filipinensis DSM 40112), ORF:2e1db1fa.
T1 sequence: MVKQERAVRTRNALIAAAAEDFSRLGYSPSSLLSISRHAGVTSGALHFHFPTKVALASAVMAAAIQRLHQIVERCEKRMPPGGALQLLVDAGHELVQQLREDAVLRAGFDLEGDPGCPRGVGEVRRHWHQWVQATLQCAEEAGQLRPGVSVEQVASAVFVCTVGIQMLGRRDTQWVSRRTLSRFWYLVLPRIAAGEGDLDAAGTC
The data set can be described thus: EMSA. The settings on record: EMSA: 100 mM HEPES pH 7.6, 10 mM KCl, 5 mM MgCl2, 1 mM DTT, 1% Tween 20, 7.8 mM glutathione, 40 ug/ml poly[d(I-C)], 5% glycerol, 30 C, 10 min; 0.005 ng/ul ….

For data set [2], the system named is T2, GST-SfbR (Streptomyces filipinensis DSM 40112), ORF:e6e403b8.
T2 sequence: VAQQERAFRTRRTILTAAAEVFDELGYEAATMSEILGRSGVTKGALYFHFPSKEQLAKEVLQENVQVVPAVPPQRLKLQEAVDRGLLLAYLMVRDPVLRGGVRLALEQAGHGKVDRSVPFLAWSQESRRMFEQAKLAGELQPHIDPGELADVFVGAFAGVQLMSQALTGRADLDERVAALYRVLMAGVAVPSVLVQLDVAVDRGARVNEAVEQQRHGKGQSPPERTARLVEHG
The data set can be described thus: EMSA. Conditions: EMSA: 100 mM HEPES pH 7.6, 10 mM KCl, 5 mM MgCl2, 1 mM DTT, 1% Tween 20, 7.8 mM glutathione, 40 ug/ml poly[d(I-C)], 5% glycerol, 30 C, 10 min; 0.005 ng/ul ….

For the sequence “GCGTGCTGCCCAGCCGTGCTGCAAAGCCGCCGAGTACTTCGATGTCCATCTCTCTCCCCCAGATCCGTACGCGCGGGGCCCGTCAGGCACGCGCGGGGTGTGGCGTAGCTCAGGGAACTCGGGACTTGCTTGACCACCAAATTAAACAGCATGGCCGGTTCTTTCTCCAGTGGAACCCGAGGATCCGTGCCGGCGCCGCCCGCGGCCCGCGCCGCGGGGCGCGGGTCCGCGGTCGGCGTCCTCGCAGGTCTGTCCGTGTGCCGGGGTGGTGTGC (double strand) [sfb7p]”, the binding result in data set [1] and in data set [2] was “binds” in each case.
